Laboratory results from the RNAGym collection of RNA variant scans (doi:10.1021/acssynbio.7b00057).

B1: Pistol ribozyme (parent)
chain: GGGUCGUUGUUCCAUAAUCGCGUGGAUAUGGCACGCAAGUUUCUACCGGGCACCGUAAAUGUCCGACUGGAGCCGUUCGGGCGGCUAUAAACAGACCUCAGGCCCGAAGCGUGGCGGCACCUGCCGCCGGUGGUAAAAAAGAUCGGAAGAGCACACGUCU

Variants of: B1
Assay: aptazyme ON/OFF ratio, guanine; higher = stronger switching; co-transcriptional cleavage with and without guanine

For U8A G9A U10C C12U C13G, which “aptazyme ON/OFF ratio” value is on record?
The value was 1.26.

For U8A G9A U10C C12U C13U, which “aptazyme ON/OFF ratio” value is on record?
Its value is 1.2.

For U7G U10G U11G C12G C13U, which “aptazyme ON/OFF ratio” value is on record?
Its value is 1.29.

For U7G U10G U11G C12G C13A, which “aptazyme ON/OFF ratio” value is on record?
Its value is 1.1.

For U7G U10G U11G C12G C13G, which “aptazyme ON/OFF ratio” value is on record?
Its value is 1.11.

For U8A G9A U10C C12G, which “aptazyme ON/OFF ratio” value is on record?
The value was 1.18.

For U8A G9A U10C C12A, which “aptazyme ON/OFF ratio” value is on record?
Its value is 1.15.

With U8A G9A U10C C12U as the variant, how does the “aptazyme ON/OFF ratio” value read?
Its value is 1.24.

For U7G U10G U11G C12U C13A, which “aptazyme ON/OFF ratio” value is on record?
Its value is 1.13.

With U7G U10G U11G C12U C13G as the variant, how does the “aptazyme ON/OFF ratio” value read?
Its value is 1.17.

Which “aptazyme ON/OFF ratio” value does the source give for U7G U10G U11G C12U C13U here?
Its value is 1.36.

Which “aptazyme ON/OFF ratio” value does the source give for U8A G9A C13U here?
Its value is 1.23.

For U8A G9A C13A, which “aptazyme ON/OFF ratio” value is on record?
The value was 1.19.

With U8A G9A C13G as the variant, how does the “aptazyme ON/OFF ratio” value read?
The value was 1.12.

For U7G U11A C12U, which “aptazyme ON/OFF ratio” value is on record?
The value was 1.68.

Which “aptazyme ON/OFF ratio” value does the source give for U7G U11A C12A here?
The value was 1.16.

With U7G U11A C12G as the variant, how does the “aptazyme ON/OFF ratio” value read?
The value was 1.18.

With U8A C12G C13U as the variant, how does the “aptazyme ON/OFF ratio” value read?
The value was 1.24.

Which “aptazyme ON/OFF ratio” value does the source give for U8A C12G C13G here?
The value was 1.18.

For U8A C12G C13A, which “aptazyme ON/OFF ratio” value is on record?
Its value is 1.48.

With U7G U11C C12A C13G as the variant, how does the “aptazyme ON/OFF ratio” value read?
The value was 1.1.

For U7G U11C C12A C13U, which “aptazyme ON/OFF ratio” value is on record?
Its value is 1.22.

Which “aptazyme ON/OFF ratio” value does the source give for U7G U11C C12A C13A here?
The value was 1.12.

Which “aptazyme ON/OFF ratio” value does the source give for U7G U10C U11G C12G here?
The value was 1.15.

For U7G U10C U11G C12U, which “aptazyme ON/OFF ratio” value is on record?
The value was 1.2.

With U7G U10C U11G C12A as the variant, how does the “aptazyme ON/OFF ratio” value read?
The value was 1.12.

Which “aptazyme ON/OFF ratio” value does the source give for U7G U10A U11C C12U C13G here?
Its value is 1.05.

For U7G U10A U11C C12U C13A, which “aptazyme ON/OFF ratio” value is on record?
Its value is 1.12.

With U7G U10A U11C C12U C13U as the variant, how does the “aptazyme ON/OFF ratio” value read?
The value was 1.08.

With U7G U10A U11C C12G as the variant, how does the “aptazyme ON/OFF ratio” value read?
Its value is 1.3.

With U7G U10A U11C C12A as the variant, how does the “aptazyme ON/OFF ratio” value read?
The value was 1.16.

With U7G U10A U11C C12U as the variant, how does the “aptazyme ON/OFF ratio” value read?
The value was 1.05.

With U7G U10G U11G C13U as the variant, how does the “aptazyme ON/OFF ratio” value read?
The value was 1.2.

For U7G U10G U11G C13A, which “aptazyme ON/OFF ratio” value is on record?
The value was 1.16.

With U7G U10G U11G C13G as the variant, how does the “aptazyme ON/OFF ratio” value read?
The value was 1.18.

For U8A G9A C12U C13U, which “aptazyme ON/OFF ratio” value is on record?
Its value is 1.11.

For U8A G9A C12U C13G, which “aptazyme ON/OFF ratio” value is on record?
Its value is 1.17.

For U8A G9A C12U C13A, which “aptazyme ON/OFF ratio” value is on record?
Its value is 1.19.

With U8A G9A U10C C13A as the variant, how does the “aptazyme ON/OFF ratio” value read?
The value was 1.06.

With U8A G9A U10C C13G as the variant, how does the “aptazyme ON/OFF ratio” value read?
The value was 1.04.

Which “aptazyme ON/OFF ratio” value does the source give for U8A G9A U10C C13U here?
The value was 1.11.

Which “aptazyme ON/OFF ratio” value does the source give for U7G U11A C12U C13U here?
Its value is 1.28.

With U7G U11A C12U C13G as the variant, how does the “aptazyme ON/OFF ratio” value read?
The value was 1.14.

For U7G U11A C12U C13A, which “aptazyme ON/OFF ratio” value is on record?
Its value is 1.19.

With U7G U10G as the variant, how does the “aptazyme ON/OFF ratio” value read?
The value was 1.42.

For U7G U10C, which “aptazyme ON/OFF ratio” value is on record?
The value was 1.5.

For U8A G9A U10A U11C C12A C13G, which “aptazyme ON/OFF ratio” value is on record?
The value was 1.16.

Which “aptazyme ON/OFF ratio” value does the source give for U8A G9A U10A U11C C12A C13A here?
Its value is 1.19.

With U8A G9A U10A U11C C12A C13U as the variant, how does the “aptazyme ON/OFF ratio” value read?
Its value is 1.25.

With U7G U10C U11G C12G C13A as the variant, how does the “aptazyme ON/OFF ratio” value read?
Its value is 1.11.

With U7G U10C U11G C12G C13G as the variant, how does the “aptazyme ON/OFF ratio” value read?
The value was 1.07.

For U7G U10C U11G C12G C13U, which “aptazyme ON/OFF ratio” value is on record?
The value was 1.05.

With U8A G9A U10C C12G C13G as the variant, how does the “aptazyme ON/OFF ratio” value read?
The value was 1.24.

For U8A G9A U10C C12G C13A, which “aptazyme ON/OFF ratio” value is on record?
The value was 1.19.

For U8A G9A U10C C12G C13U, which “aptazyme ON/OFF ratio” value is on record?
Its value is 1.22.

For U8A G9A U10A U11A C12G C13A, which “aptazyme ON/OFF ratio” value is on record?
Its value is 1.29.

With U8A G9A U10A U11A C12G C13G as the variant, how does the “aptazyme ON/OFF ratio” value read?
The value was 1.18.

With U8A G9A U10A U11A C12G C13U as the variant, how does the “aptazyme ON/OFF ratio” value read?
The value was 1.16.

Which “aptazyme ON/OFF ratio” value does the source give for U8A G9A U10A here?
Its value is 1.65.

For U8A G9A U10C, which “aptazyme ON/OFF ratio” value is on record?
Its value is 2.54.

Which “aptazyme ON/OFF ratio” value does the source give for U8A C12U here?
The value was 1.62.

For U8A C12A, which “aptazyme ON/OFF ratio” value is on record?
Its value is 1.3.

For U8A C12G, which “aptazyme ON/OFF ratio” value is on record?
Its value is 1.46.

Which “aptazyme ON/OFF ratio” value does the source give for U8A G9A U10A U11A C12A C13A here?
The value was 1.29.

For U8A G9A U10A U11A C12A C13U, which “aptazyme ON/OFF ratio” value is on record?
Its value is 1.27.

With U8A G9A U10A U11A C12A C13G as the variant, how does the “aptazyme ON/OFF ratio” value read?
The value was 1.1.

For U8A G9A U10A U11G C13A, which “aptazyme ON/OFF ratio” value is on record?
Its value is 1.12.

Which “aptazyme ON/OFF ratio” value does the source give for U8A G9A U10A U11G C13G here?
Its value is 1.08.

Which “aptazyme ON/OFF ratio” value does the source give for U8A G9A U10A U11G C13U here?
Its value is 1.18.

With U7G U10A U11A C12A C13G as the variant, how does the “aptazyme ON/OFF ratio” value read?
Its value is 1.11.

For U7G U10A U11A C12A C13A, which “aptazyme ON/OFF ratio” value is on record?
Its value is 1.14.

For U7G U10A U11A C12A C13U, which “aptazyme ON/OFF ratio” value is on record?
Its value is 1.07.

For U8A G9A U10A U11C C12G C13A, which “aptazyme ON/OFF ratio” value is on record?
The value was 1.16.

With U8A G9A U10A U11C C12G C13G as the variant, how does the “aptazyme ON/OFF ratio” value read?
Its value is 1.21.

With U8A G9A U10A U11C C12G C13U as the variant, how does the “aptazyme ON/OFF ratio” value read?
The value was 1.25.

Which “aptazyme ON/OFF ratio” value does the source give for U7G U10C C12A C13G here?
The value was 1.1.

Which “aptazyme ON/OFF ratio” value does the source give for U7G U10C C12A C13A here?
Its value is 1.1.

Which “aptazyme ON/OFF ratio” value does the source give for U7G U10C C12A C13U here?
The value was 1.12.

Which “aptazyme ON/OFF ratio” value does the source give for U8A C13U here?
The value was 1.43.

With U8A C13A as the variant, how does the “aptazyme ON/OFF ratio” value read?
Its value is 1.24.

With U8A C13G as the variant, how does the “aptazyme ON/OFF ratio” value read?
The value was 1.11.

Which “aptazyme ON/OFF ratio” value does the source give for U7G U11A C12A C13G here?
Its value is 1.14.

Which “aptazyme ON/OFF ratio” value does the source give for U7G U11A C12A C13U here?
The value was 1.22.
